Earlier results on one substance are cited in paper PMC9811451.

The data set deals with ACE2 (Homo sapiens) (UniProt Q9BYF1).
ACE2 (Homo sapiens), sequence (Q9BYF1 18-740): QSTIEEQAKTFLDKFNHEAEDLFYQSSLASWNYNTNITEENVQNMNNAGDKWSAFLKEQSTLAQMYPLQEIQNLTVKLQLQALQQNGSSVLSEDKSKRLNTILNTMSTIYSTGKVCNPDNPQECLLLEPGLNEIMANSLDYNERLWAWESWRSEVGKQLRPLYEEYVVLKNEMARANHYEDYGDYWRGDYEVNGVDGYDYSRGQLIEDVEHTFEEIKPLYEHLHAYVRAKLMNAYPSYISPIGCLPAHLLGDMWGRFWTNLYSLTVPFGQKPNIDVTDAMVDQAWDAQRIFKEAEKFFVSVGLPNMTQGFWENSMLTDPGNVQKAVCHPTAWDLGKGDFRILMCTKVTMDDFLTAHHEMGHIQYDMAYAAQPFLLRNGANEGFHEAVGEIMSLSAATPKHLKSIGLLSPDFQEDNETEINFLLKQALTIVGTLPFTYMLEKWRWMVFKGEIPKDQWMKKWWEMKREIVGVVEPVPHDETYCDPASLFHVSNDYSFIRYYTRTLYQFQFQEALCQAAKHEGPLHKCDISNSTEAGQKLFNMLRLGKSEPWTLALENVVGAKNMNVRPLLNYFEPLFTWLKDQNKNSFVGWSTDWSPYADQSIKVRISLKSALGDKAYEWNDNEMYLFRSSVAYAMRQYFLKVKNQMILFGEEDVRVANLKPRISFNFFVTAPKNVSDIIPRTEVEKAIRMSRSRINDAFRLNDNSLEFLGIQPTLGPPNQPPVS

In general, Kd refers to the free concentration of one partner at which half of the binding sites on the other are occupied at equilibrium, for simple one-to-one binding. Take Spike (from UniProt P0DTC2): the Kd is 4 nM.
